Results as given in patent US20060040277A1 (published 2006).

Target: T1, GST-ATIPmouse-short fusion protein (from pGEX-4T1-GST-ATIPmouse-short), on glutathione-agarose beads (mouse, UniProt Q5HZI1 937-1053)
T1 construct: also called GA-GST-ATIPmouse-short; GST-ATIPc; not shown: glutathione S-transferase (GST) encoded by pGEX-4T-1 (Pharmacia)
T1 sequence: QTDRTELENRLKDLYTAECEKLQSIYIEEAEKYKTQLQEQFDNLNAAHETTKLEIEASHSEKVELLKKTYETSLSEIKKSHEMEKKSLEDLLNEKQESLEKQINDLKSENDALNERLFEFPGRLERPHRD
Assay: GST pull-down, SDS-PAGE and immunoblot with anti-MBP

binding result: no binding
B1: MBP-AT1: fusion of Maltose Binding Protein and the C-terminal end of the human AT1 receptor (Leu 297-Glu 359) (receptor, UniProt P30556 297-359, looked up, not shown: large carriers)
chain: LNPLFYGFLGKKFKRYFLQLLKYIPPKAKSHSNLSTKMSTLSYRPSDNVSSSTKKPAPCFEVE
notes: range 297-359
